Test results: patent US20240166745A1 (Eli Lilly, published 2024)
Each block holds one binder with its values, some of them ahead of it.

Key:
Human LAG-3 ECD-His [1] = molecular target: T1, Human LAG-3 ECD-His (human, UniProt P18627 23-449); experiment: SPR (Biacore T200), antibody captured on PrismA chip, ECD as analyte, 25° C.
T1 construct: Soluble analyte in SPR; the entry includes linker and His tag; also called human LAG-3-His
T1 sequence: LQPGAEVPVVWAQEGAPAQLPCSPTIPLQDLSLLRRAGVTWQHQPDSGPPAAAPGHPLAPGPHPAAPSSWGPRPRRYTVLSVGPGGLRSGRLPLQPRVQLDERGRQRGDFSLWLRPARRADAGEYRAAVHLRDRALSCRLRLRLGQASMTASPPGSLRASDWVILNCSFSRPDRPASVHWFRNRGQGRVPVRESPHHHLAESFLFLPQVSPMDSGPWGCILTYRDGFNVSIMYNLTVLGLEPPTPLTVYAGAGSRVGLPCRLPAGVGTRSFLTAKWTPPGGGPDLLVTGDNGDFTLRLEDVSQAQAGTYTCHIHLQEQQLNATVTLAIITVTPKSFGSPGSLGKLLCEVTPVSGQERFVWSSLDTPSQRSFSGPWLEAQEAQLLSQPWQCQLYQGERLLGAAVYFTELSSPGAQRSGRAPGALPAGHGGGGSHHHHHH
Method: (§1) A Biacore® T200 (Cytiva, Marlborough, MA) was used to measure the binding kinetics and affinities of the LAG-3 antibody to the LAG-3 soluble extracellular domain (ECD) and the bispecific antibody to soluble LAG-3-ECD and PD-1-ECD (human: Sino Biologicals, Cat #10377-H08H; cynomolgus: Sino Biologicals, Cat #90311-C08H) by surface plasmon resonance. Samples were diluted in HBS-EP+ (10 mM Hepes, 150 mM NaCl, 3 mM EDTA, 0.05% Tween-20, pH 7.6) (Teknova Cat #H8022) with 5 g/L of BSA (Jackson ImmunoResearch Cat #001-000-161) running buffer. PrismA Series S Sensor chip (Cat #29650263) is purchased from Cytiva.
(§2) Binding was evaluated using multi-cycle kinetics by an antibody capture method. Each cycle was performed at either 37° C. or 25° C. at a flow rate of 10 μL/min for antibody capture to the PrismA chip and 100 μL/min for analyte association (with 120 sec contact time) and dissociation (900 sec). Each cycle consisted of the following steps: injection of bispecific antibody at 1 μg/mL in HBS-EP+ targeting Rmax values of 125 RU (LAG-3 arm), 294 RU (PD-1 arm) and 63 RU (LAG-3 antibody) on flow cell, injection of analyte in HBS-EP+(concentration range of 62.5 nM to 0.25 nM by two-fold serial dilution for both human PD-1-ECD-His (SEQ ID NO: 40) and human LAG-3-His (SEQ ID NO: 42) followed by 900-second dissociation phase, and regeneration using 10 μL of 10 mM glycine hydrochloride, pH 1.5 over a 60-second contact time utilizing a 10 μL/min flow rate. All analyte concentrations were determined utilizing monomeric molecular weight (MW) values. Association rates (kₒₙ) and dissociation rates (koff) for LAG-3-ECD and PD-1-ECD were evaluated using double referencing by flow-cell one reference subtraction in addition to 0 nM blank subtraction and fit to “1:1 (Langmuir) binding” model in the BIAevaluation software version 4.1. The dissociation constant (KD) was calculated from the binding kinetics according to the relationship KD=Koff/Kₒₙ. Stoichiometry=[RUₘₐₓ/RUcaptured]/[MWanalyte/MWantibody] where MWAntibodyA is 150 kDa. Values are reported as mean±standard deviation.

Cynomolgus PD-1-ECD [2] = molecular target: T2, Cynomolgus PD-1-ECD (cynomolgus, UniProt B0LAJ3 25-170); experiment: as above
T2 construct: commercial protein; also called cynomolgus PD-1-ECD (Sino Biologicals, Cat #90311-C08H); not shown: C-terminal polyhistidine tag of the vendor product (Sino Biological 90311-C08H)
Method: as §1, §2

Human PD-1 ECD-His [3] = molecular target: T3, Human PD-1 ECD-His (human, UniProt Q15116 25-167); experiment: SPR (Biacore T200), antibody captured on PrismA chip, ECD as analyte, 37° C.
T3 construct: Soluble analyte in SPR; the entry includes the His tag
Method: as §1, §2

Cynomolgus PD-1-ECD [4] = molecular target: T2, Cynomolgus PD-1-ECD; experiment: as above
Method: as §1, §2

Human PD-1 ECD-His [5] = molecular target: T3, Human PD-1 ECD-His; experiment: SPR (Biacore T200), antibody captured on PrismA chip, ECD as analyte, 25° C.; 25° C.
Method: as §1
(§3) Binding was evaluated using multi-cycle kinetics by an antibody capture method. […] Each cycle consisted of the following steps: injection of bispecific antibody at 1 μg/mL in HBS-EP+ targeting Rmax values of 125 RU (LAG-3 arm), 294 RU (PD-1 arm) and 63 RU (LAG-3 antibody) on flow cell, injection of analyte in HBS-EP+(concentration range of 62.5 nM to 0.25 nM by two-fold serial dilution for both human PD-1-ECD-His (SEQ ID NO: 40) and human LAG-3-His (SEQ ID NO: 42) followed by 900-second dissociation phase, and regeneration using 10 μL of 10 mM glycine hydrochloride, pH 1.5 over a 60-second contact time utilizing a 10 μL/min flow rate. All analyte concentrations were determined utilizing monomeric molecular weight (MW) values. […]

Human LAG-3 ECD-His [6] = molecular target: T1, Human LAG-3 ECD-His; experiment: SPR (Biacore T200), antibody captured on PrismA chip, ECD as analyte, 37° C., steady-state equilibrium model (SS); 37° C., steady-state equilibrium model
Human PD-1 ECD-His [7] = molecular target: T3, Human PD-1 ECD-His; experiment: SPR (Biacore T200), antibody captured on PrismA chip, ECD as analyte; temperature unclear: the 37° C. label is printed only at r14, by the order of Table 3a probably 37° C.
Method: as §1, §2

Cynomolgus PD-1-ECD [8] = molecular target: T2, Cynomolgus PD-1-ECD; experiment: as above
Method: as §1, §2

Human PD-1 ECD-His [9] = molecular target: T3, Human PD-1 ECD-His; experiment: SPR (Biacore T200), antibody captured on PrismA chip, ECD as analyte; temperature unclear: the 37° C. label is printed only at r14, by the order of Table 3a probably 37° C.; 37° C. (label printed late, at r14)
Method: as §1, §3

Human LAG-3 ECD-His [10] = molecular target: T1, Human LAG-3 ECD-His; experiment: SPR (Biacore T200), antibody captured on PrismA chip, ECD as analyte, 37° C.
Method: as §1, §2

T3 sequence (Q15116 other isoform, or with tags, fused parts or gaps): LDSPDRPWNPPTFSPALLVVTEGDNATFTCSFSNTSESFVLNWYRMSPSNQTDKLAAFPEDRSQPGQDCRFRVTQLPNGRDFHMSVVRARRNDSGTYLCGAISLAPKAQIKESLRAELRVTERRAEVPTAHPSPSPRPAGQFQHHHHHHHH
T2 sequence (B0LAJ3 entry or part of it limits assumed): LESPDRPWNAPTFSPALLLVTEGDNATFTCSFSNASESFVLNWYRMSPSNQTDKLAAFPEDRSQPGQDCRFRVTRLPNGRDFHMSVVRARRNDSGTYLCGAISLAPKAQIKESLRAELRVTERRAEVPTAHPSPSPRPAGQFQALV

- Kd (Human LAG-3 ECD-His [1]): 0.55 nM
- koff (Human LAG-3 ECD-His [1]): 0.019 s⁻¹
- kon (Human LAG-3 ECD-His [1]): 3.4e+07 M⁻¹ s⁻¹
- Kd (Cynomolgus PD-1-ECD [2]): 1.6 nM
- koff (Cynomolgus PD-1-ECD [2]): 0.002 s⁻¹
- kon (Cynomolgus PD-1-ECD [2]): 1.3e+06 M⁻¹ s⁻¹
- Kd (Human PD-1 ECD-His [3]): 0.66 nM
- koff (Human PD-1 ECD-His [3]): 0.0017 s⁻¹
- kon (Human PD-1 ECD-His [3]): 2.5e+06 M⁻¹ s⁻¹
- Kd (Cynomolgus PD-1-ECD [4]): 3.5 nM
- koff (Cynomolgus PD-1-ECD [4]): 0.0087 s⁻¹
- kon (Cynomolgus PD-1-ECD [4]): 2.5e+06 M⁻¹ s⁻¹
- kon (Human PD-1 ECD-His [5]): 750000 M⁻¹ s⁻¹
- Kd (Human LAG-3 ECD-His [6]): 5.7 nM
B1: Antibody A (bispecific antibody, human IgG1, kappa, lambda)
heavy 1: not shown
light 1: DIVMTQTPLSLPVTPGEPASISCRSSQSLLDSAEGSTYLDWFLRKPGDSPQLLIYTLSYRASGVPDRFSGSGSGTDFTLKISRVEAEDVGVYYCMQRVEFPYTFGQGTKVEIKRTVAAPSVFIFPPSKEQLKSGTASVVCLLNNFYPREAKVQWKVDNALQSGNSQESVTEQDSKDSTYSLSSTLTLSKADYEKHKVYACEVTHQGLSSPVTKSFNRGEC
heavy 2: QVQLVQSGAEVKKPGASVKVSCKVSGYSLSKYDMSWVRKAPGKGLEWMGIIYTSGYTDYAQEFQGRVTMTEDTSTDTAYMELSSLRSEDTAVYYCATGNPYYTNGFNSWGQGTLVTVSSASTKGPSVFPLAPSSKSTSGGTAALGCLVKDYFPEPVTVSWNSGALTSGVATGPAVLQSSGLYSLSSVVTVPSSSLGTQTYICNVNHKPSNTKVDKRVEPKSCDKTHTCPPCPAPELLGGPSVFLFPPKPKDTLMISRTPEVTCVVVDVSHEDPEVKFNWYVDGVEVHNAKTKPREEQYNSTYRVVSVLTVLHQDWLNGKEYKCKVSNKALPAPIEKTISKAKGQPREPQVYTLPPSREEMTDNQVSLTCLVKGFYPSDIAVEWESNGQPENNYKTTPPVLMSDGSFFLASKLTVDKSRWQQGNVFSCSVMHEALHNHYTQKSLSLSPGK
light 2: RIQMTQSPSSLSASVGDRVTITCQASQSPNNLLAWYQDKPGKAPKLLIYGASDLPSGVPSRFSGSGSGTDFTLTISSLQPEDFATYYCQNNYYVGPVSYAFGGGTKVEIKGQPKAAPSVTLFPPSSEELQANKATLVCYISDFYPGAVTVAWKADSSPVKAGVETTTPSKQSNNKYAAWSYLSLTPEQWKSHRSYSCQVTHEGSTVEKTVAPTEC
notes: IgG-like bispecific with one LAG-3 arm and one PD-1 arm; also called human LAG-3/human PD-1 dual agonist bispecific antibody

- Kd (Human LAG-3 ECD-His [1]): 0.53 nM
- koff (Human LAG-3 ECD-His [1]): 0.023 s⁻¹
- kon (Human LAG-3 ECD-His [1]): 4.3e+07 M⁻¹ s⁻¹
- Kd (Cynomolgus PD-1-ECD [2]): 1.1 nM
- koff (Cynomolgus PD-1-ECD [2]): 0.0018 s⁻¹
- kon (Cynomolgus PD-1-ECD [2]): 1.7e+06 M⁻¹ s⁻¹
- Kd (Human PD-1 ECD-His [7]): 0.65 nM
- koff (Human PD-1 ECD-His [7]): 0.0015 s⁻¹
- Kd (Cynomolgus PD-1-ECD [8]): 3.1 nM
- koff (Cynomolgus PD-1-ECD [8]): 0.0088 s⁻¹
- kon (Cynomolgus PD-1-ECD [8]): 2.8e+06 M⁻¹ s⁻¹
- kon (Human PD-1 ECD-His [9]): 2.4e+06 M⁻¹ s⁻¹
- Kd (Human LAG-3 ECD-His [10]): 6.1 nM
- koff (Human LAG-3 ECD-His [10]): 0.34 s⁻¹
- kon (Human LAG-3 ECD-His [10]): 5.5e+07 M⁻¹ s⁻¹
B2: Antibody B (bispecific antibody, human IgG1, kappa, lambda)
heavy 1: not shown
light 1: DIVMTQTPLSLPVTPGEPASISCRSSQSLLDSAEGSTYLDWFLRKPGDSPQLLIYTLSYRASGVPDRFSGSGSGTDFTLKISRVEAEDVGVYYCMQRVEFPYTFGQGTKVEIKRTVAAPSVFIFPPSKEQLKSGTASVVCLLNNFYPREAKVQWKVDNALQSGNSQESVTEQDSKDSTYSLSSTLTLSKADYEKHKVYACEVTHQGLSSPVTKSFNRGEC
heavy 2: QVQLVQSGAEVKKPGASVKVSCKVSGYSLSKYDMSWVRKAPGKGLEWMGIIYTSGYTDYAQEFQGRVTMTEDTSTDTAYMELSSLRSEDTAVYYCATGNPYYTNGFNSWGQGTLVTVSSASTKGPSVFPLAPSSKSTSGGTAALGCLVKDYFPEPVTVSWNSGALTSGVATGPAVLQSSGLYSLSSVVTVPSSSLGTQTYICNVNHKPSNTKVDKRVEPKSCDKTHTCPPCPAPELLGGPSVFLFPPKPKDTLMISRTPEVTCVVVDVSHEDPEVKFNWYVDGVEVHNAKTKPREEQYNSTYRVVSVLTVLHQDWLNGKEYKCAVSNKALPAPIEKTISKAKGQPREPQVYTLPPSREEMTDNQVSLTCLVKGFYPSDIAVEWESNGQPENNYKTTPPVLMSDGSFFLASKLTVDKSRWQQGNVFSCSVMHEALHNHYTQKSLSLSPGK
light 2: RIQMTQSPSSLSASVGDRVTITCQASQSPNNLLAWYQDKPGKAPKLLIYGASDLPSGVPSRFSGSGSGTDFTLTISSLQPEDFATYYCQNNYYVGPVSYAFGGGTKVEIKGQPKAAPSVTLFPPSSEELQANKATLVCYISDFYPGAVTVAWKADSSPVKAGVETTTPSKQSNNKYAAWSYLSLTPEQWKSHRSYSCQVTHEGSTVEKTVAPTEC
notes: also called human LAG-3/human PD-1 dual agonist bispecific antibody
